The target in one assay is T1, HLA-DR15 (DRB1*15:02) (human).
T1 construct: whole, on cells; MHC class II molecule on transfected L cells (L-DR15); also called L-DR15 (mouse L cells expressing it)
The assay can be described thus: concluded from IFN-gamma ELISPOT with peptide-pulsed L cells expressing single HLA class II molecules and blocking mAbs; no direct binding assay. As for the experimental part:
(§1) The immune response of Th cells to APCs pulsed with peptides were assessed by IFN-gamma ELISPOT assays (Human IFN-gamma ELISPOT kit, BD Biosciences) as described previously (Tomita Y, et al. Cancer Sci; 102: 697-705.). Briefly, the frequency of peptide-specific CD4⁺ T cells producing IFN-gamma per 3×10⁴ bulk CD4⁺ T cells upon stimulation with peptide-pulsed PBMCs (3×10⁴ cells/well), or 1×10⁴ bulk CD4⁺ T cells upon stimulation with peptide-pulsed HLA-DR or DP-expressing L-cells (5×10⁴/well) was analyzed. To determine restriction HLA molecules involved in antigen presentation, blocking of antigen-induced IFN-gamma production was investigated by adding anti-HLA-DR mAb (L243, Biolegend), anti-HLA-DP mAb, (B7/21, abcam), anti-human HLA-DQ mAb (SPV-L3, abcam), or anti-HLA class I mAb, (W6/32, abcam). All mAbs were used at a final concentration of 5 micro-g/ml. Cells cultured with HIV-derived peptides were used as negative control. Cells cultured with PMA (100 ng/ml; Sigma-Aldrich) and ionomycin (500 ng/ml; Sigma-Aldrich) were used as positive controls. All assessments of IFN-gamma ELISPOT assays were carried out in duplicate or triplicate, and results corresponded to mean values.

Another assay has as its target T2, HLA-DR8 (DRB1*08:03) (human).
T2 construct: whole, on cells; MHC class II molecule on transfected L cells (L-DR8); also called L-DR8 (mouse L cells expressing it)
Described as above. The procedure: as §1

B1: LY6K (119-142) long peptide (peptide)
peptide: KWTEPYCVIAAVKIFPRFFMVAKQ
notes: Synthetic 24-mer, purity >90%
In the case of B1, the binding result in the assay with HLA-DR15 (DRB1*15:02) and with HLA-DR8 (DRB1*08:03) was “binds” each time.

(Values after patent US20150191516A1 (ONCOTHERAPY SCIENCE, published 2015).)
